Measurements as given in paper doi:10.1101/491043 (bioRxiv, 2018).
Several values for one entry are separate records, joined by “and”; a condition that tells them apart may be missing. Identical values can stand only once.

Biological target: the molecule itself

B1: M. tuberculosis ClpX (enzyme)
chain: not shown
stoichiometry N: 6 and 2
